Target: human FasL, cell surface (membrane-bound) (human) (UniProt P48023)
Test: cell-based or functional assay

human FasL, cell surface (membrane-bound) (human), sequence (P48023 whole entry): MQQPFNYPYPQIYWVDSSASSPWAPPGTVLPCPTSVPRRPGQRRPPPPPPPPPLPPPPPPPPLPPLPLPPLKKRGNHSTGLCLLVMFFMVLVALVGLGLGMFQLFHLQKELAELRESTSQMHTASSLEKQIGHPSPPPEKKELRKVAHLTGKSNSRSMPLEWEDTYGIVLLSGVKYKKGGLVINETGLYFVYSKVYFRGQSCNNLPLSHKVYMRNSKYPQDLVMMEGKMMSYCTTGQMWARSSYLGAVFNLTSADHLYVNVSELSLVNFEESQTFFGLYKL

inhibition of FasL-mediated apoptosis of Jurkat cells (annexin-V externalization, flow cytometry), IC50: 102 nM
Substance: soluble CD95-Fc (sCD95-Fc) fusion protein (from UniProt P25445 26-172) (Fc fusion)
